According to US20180155451A1 (published 2018):

T1: FcγRIIa R (FcγRIIa, allotype R: Arg at position 131) extracellular domain with C-terminal His tag (human, UniProt P12318 34-217)
T1 construct: extracellular domain; also called FcgRIIa R; 2aR; not shown: His tag at the C terminus
T1 sequence (looked up): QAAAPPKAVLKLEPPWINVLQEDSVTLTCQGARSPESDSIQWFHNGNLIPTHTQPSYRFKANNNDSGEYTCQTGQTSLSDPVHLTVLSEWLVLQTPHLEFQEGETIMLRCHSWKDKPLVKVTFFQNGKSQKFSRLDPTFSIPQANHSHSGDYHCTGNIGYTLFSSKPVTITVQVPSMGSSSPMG

T2: FcγRIIb extracellular domain with C-terminal His tag (human, UniProt P31994 43-217)
T2 construct: extracellular domain; also called FcgRIIb; 2b; not shown: His tag at the C terminus
T2 sequence (looked up): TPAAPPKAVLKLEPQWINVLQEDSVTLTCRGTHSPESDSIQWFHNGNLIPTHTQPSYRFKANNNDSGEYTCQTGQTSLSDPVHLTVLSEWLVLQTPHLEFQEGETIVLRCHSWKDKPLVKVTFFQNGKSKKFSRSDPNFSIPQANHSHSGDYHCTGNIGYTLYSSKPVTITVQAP

B1: GpH7-B3 variant S337_08L/GpL16-k0 (antibody, human IgG1, kappa)
heavy: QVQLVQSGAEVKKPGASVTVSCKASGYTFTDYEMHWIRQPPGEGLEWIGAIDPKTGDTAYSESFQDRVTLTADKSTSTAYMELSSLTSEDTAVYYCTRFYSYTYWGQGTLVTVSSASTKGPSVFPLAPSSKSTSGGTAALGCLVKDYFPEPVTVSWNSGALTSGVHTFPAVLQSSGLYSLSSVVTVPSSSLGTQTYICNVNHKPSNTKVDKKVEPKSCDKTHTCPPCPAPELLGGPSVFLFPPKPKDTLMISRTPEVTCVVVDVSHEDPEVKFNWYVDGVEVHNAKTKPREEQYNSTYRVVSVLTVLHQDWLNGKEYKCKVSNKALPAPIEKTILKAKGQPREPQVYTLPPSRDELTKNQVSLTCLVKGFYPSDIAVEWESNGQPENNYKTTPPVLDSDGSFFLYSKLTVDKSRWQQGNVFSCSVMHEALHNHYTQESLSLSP
light: DIVMTQSPLSLPVTPGEPASISCQASESLVHSNRNTYLHWYLQKPGQSPQLLIYKVSNRFSGVPDRFSGSGSGTDFTLKISRVEAEDVGVYYCSQNTHVPPTFGQGTKVEIERTVAAPSVFIFPPSDEQLKSGTASVVCLLNNFYPREAKVQWKVDNALQSGNSQESVTEQDSKDSTYSLSSTLTLSKADYEKHKVYACEVTHQGLSSPVTKSFNRGEC
notes: homodimerized, mutation in both H chains; also called Ho Ab
B2: GpH7-B3 variant S337_20W/GpL16-k0 (antibody, human IgG1, kappa)
heavy: not shown
light: B1 light
notes: as for B1
B3: GpH7-B3 variant T335_18N/GpL16-k0 (antibody, human IgG1, kappa)
heavy: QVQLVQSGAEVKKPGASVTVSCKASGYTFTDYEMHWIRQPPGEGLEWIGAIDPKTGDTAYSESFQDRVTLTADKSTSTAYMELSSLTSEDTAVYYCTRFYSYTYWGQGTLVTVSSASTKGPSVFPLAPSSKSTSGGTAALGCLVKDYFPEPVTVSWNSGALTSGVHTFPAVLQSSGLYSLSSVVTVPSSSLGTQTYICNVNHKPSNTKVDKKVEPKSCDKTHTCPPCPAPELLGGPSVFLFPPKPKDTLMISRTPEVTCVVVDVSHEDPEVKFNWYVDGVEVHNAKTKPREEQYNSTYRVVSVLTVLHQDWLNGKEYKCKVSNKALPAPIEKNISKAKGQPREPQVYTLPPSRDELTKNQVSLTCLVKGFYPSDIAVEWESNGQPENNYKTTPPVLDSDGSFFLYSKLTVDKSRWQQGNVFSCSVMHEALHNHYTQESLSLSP
light: B1 light
notes: as for B1
B4: GpH7-B3 variant T335_20W/GpL16-k0 (antibody, human IgG1, kappa)
heavy: not shown
light: B1 light
notes: as for B1
B5: GpH7-B3 variant V266_08L/GpL16-k0 (antibody, human IgG1, kappa)
heavy: not shown
light: B1 light
notes: as for B1
B6: GpH7-B3 variant Y296_04F/GpL16-k0 (antibody, human IgG1, kappa)
heavy: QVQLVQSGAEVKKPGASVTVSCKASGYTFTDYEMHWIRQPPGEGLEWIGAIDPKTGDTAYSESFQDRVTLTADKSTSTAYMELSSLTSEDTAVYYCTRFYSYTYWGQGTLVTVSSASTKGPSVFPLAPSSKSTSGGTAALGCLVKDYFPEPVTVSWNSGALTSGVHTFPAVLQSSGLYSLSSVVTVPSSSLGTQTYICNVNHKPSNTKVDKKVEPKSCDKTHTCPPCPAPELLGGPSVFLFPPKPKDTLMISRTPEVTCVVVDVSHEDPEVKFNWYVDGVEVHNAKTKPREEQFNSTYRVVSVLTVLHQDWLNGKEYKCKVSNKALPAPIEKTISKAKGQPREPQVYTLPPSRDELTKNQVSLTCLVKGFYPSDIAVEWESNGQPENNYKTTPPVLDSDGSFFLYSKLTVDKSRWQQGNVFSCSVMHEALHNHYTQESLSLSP
light: B1 light
notes: as for B1
B7: GpH7-B3 variant Y296_09D/GpL16-k0 (antibody, human IgG1, kappa)
heavy: not shown
light: B1 light
notes: as for B1
B8: GpH7-B3 variant Y296_16H/GpL16-k0 (antibody, human IgG1, kappa)
heavy: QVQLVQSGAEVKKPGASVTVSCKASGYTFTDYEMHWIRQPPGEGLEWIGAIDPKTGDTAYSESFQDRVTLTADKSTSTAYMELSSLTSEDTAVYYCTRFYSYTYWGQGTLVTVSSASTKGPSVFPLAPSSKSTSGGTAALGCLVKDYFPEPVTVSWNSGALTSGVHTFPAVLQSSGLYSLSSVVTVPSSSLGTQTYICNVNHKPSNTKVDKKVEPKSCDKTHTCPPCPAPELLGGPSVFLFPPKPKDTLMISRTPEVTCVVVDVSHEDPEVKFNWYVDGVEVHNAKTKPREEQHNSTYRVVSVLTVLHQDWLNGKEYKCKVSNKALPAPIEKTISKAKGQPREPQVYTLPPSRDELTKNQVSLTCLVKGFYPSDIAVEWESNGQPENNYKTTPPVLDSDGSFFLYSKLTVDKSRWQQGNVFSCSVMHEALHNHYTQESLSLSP
light: B1 light
notes: as for B1
B9: GpH7-B3 variant A330_16H/GpL16-k0 (antibody, human IgG1, kappa)
heavy: not shown
light: B1 light
notes: as for B1
B10: GpH7-B3 variant E333_09D/GpL16-k0 (antibody, human IgG1, kappa)
heavy: not shown
light: B1 light
notes: as for B1
B11: GpH7-B3 variant G236_03V/GpL16-k0 (antibody, human IgG1, kappa)
heavy: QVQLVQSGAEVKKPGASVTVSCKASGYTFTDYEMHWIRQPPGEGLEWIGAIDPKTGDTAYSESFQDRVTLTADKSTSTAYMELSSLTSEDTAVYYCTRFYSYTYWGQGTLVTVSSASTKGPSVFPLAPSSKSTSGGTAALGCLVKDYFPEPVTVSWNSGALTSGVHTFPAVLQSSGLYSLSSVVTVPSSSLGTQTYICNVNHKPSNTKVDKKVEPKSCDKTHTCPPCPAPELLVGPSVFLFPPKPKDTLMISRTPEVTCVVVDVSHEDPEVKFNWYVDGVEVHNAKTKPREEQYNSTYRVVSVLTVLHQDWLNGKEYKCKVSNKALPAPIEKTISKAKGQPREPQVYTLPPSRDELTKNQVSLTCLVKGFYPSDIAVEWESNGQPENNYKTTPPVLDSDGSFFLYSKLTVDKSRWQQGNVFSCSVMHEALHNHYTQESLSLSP
light: B1 light
notes: as for B1
B12: GpH7-B3 variant G236_07I/GpL16-k0 (antibody, human IgG1, kappa)
heavy: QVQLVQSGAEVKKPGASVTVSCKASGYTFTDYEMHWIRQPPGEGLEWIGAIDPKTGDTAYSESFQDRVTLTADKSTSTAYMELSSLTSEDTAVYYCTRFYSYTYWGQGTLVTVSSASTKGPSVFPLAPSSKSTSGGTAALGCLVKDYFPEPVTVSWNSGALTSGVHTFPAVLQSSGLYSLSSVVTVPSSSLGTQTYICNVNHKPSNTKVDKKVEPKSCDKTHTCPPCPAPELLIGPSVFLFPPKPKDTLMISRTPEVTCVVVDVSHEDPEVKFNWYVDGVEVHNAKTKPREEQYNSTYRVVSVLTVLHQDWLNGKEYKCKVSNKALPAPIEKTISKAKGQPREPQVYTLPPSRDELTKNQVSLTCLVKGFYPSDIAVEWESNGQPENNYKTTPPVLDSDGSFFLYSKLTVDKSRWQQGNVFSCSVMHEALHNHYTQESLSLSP
light: B1 light
notes: as for B1
B13: GpH7-B3 variant H268_02A/GpL16-k0 (antibody, human IgG1, kappa)
heavy: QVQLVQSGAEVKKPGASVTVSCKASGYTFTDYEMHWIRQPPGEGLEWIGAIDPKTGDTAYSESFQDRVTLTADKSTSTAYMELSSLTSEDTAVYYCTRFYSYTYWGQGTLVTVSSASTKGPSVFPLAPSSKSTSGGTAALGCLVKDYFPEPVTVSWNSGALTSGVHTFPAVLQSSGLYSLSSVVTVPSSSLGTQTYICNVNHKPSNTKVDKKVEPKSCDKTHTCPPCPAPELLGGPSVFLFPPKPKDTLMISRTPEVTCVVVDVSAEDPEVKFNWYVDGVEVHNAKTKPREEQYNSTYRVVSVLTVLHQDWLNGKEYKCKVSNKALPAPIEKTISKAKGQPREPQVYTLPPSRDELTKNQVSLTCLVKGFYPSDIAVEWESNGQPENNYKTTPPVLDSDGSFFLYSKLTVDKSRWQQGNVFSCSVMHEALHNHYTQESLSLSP
light: B1 light
notes: as for B1
B14: GpH7-B3 variant H268_18N/GpL16-k0 (antibody, human IgG1, kappa)
heavy: not shown
light: B1 light
notes: as for B1
B15: GpH7-B3 variant H268_19Q/GpL16-k0 (antibody, human IgG1, kappa)
heavy: not shown
light: B1 light
notes: as for B1
B16: GpH7-B3 variant I336_06M/GpL16-k0 (antibody, human IgG1, kappa)
heavy: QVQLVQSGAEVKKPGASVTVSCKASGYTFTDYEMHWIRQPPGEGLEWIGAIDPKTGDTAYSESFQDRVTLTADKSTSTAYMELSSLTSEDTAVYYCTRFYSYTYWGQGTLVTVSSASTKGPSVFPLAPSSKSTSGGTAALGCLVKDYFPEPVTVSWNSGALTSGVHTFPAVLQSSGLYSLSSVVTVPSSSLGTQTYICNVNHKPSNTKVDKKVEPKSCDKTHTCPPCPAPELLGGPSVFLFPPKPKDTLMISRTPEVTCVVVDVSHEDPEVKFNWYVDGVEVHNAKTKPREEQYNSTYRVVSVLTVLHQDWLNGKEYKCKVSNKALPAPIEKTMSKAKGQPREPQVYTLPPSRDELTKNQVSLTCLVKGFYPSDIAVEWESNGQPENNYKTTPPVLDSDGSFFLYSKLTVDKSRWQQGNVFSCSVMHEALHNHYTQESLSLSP
light: B1 light
notes: as for B1
B17: GpH7-B3 variant I336_08L/GpL16-k0 (antibody, human IgG1, kappa)
heavy: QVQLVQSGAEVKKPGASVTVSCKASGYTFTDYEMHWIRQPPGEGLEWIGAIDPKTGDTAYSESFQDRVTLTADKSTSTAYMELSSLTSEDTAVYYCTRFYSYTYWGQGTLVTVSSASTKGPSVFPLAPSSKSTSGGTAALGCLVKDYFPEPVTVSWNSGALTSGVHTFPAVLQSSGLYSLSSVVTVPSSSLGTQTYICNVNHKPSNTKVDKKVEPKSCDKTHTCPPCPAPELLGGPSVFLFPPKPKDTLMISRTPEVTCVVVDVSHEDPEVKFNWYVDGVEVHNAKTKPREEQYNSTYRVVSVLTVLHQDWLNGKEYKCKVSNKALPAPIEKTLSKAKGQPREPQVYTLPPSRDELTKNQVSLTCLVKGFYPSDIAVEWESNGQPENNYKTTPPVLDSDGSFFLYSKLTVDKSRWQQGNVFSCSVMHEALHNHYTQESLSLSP
light: B1 light
notes: as for B1
B18: GpH7-B3 variant K326_06M/GpL16-k0 (antibody, human IgG1, kappa)
heavy: not shown
light: B1 light
notes: as for B1
B19: GpH7-B3 variant K326_10E/GpL16-k0 (antibody, human IgG1, kappa)
heavy: not shown
light: B1 light
notes: as for B1
B20: GpH7-B3 variant K326_19Q/GpL16-k0 (antibody, human IgG1, kappa)
heavy: not shown
light: B1 light
notes: as for B1
B21: GpH7-B3 variant K334_04F/GpL16-k0 (antibody, human IgG1, kappa)
heavy: not shown
light: B1 light
notes: as for B1
B22: GpH7-B3 variant K334_08L/GpL16-k0 (antibody, human IgG1, kappa)
heavy: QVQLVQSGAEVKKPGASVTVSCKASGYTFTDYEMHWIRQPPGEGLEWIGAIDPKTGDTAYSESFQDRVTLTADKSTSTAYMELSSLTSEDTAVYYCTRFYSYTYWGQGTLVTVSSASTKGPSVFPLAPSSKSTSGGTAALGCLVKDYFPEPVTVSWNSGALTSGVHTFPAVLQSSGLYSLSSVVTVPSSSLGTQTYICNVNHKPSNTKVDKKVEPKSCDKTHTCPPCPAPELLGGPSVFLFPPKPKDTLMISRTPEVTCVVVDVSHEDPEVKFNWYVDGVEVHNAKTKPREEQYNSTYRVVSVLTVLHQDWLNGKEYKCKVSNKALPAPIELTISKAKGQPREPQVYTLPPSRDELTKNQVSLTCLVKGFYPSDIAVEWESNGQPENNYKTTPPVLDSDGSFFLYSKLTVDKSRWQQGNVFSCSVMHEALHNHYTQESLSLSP
light: B1 light
notes: as for B1
B23: GpH7-B3 variant K334_16H/GpL16-k0 (antibody, human IgG1, kappa)
heavy: not shown
light: B1 light
notes: as for B1
B24: GpH7-B3 variant L235_04F/GpL16-k0 (antibody, human IgG1, kappa)
heavy: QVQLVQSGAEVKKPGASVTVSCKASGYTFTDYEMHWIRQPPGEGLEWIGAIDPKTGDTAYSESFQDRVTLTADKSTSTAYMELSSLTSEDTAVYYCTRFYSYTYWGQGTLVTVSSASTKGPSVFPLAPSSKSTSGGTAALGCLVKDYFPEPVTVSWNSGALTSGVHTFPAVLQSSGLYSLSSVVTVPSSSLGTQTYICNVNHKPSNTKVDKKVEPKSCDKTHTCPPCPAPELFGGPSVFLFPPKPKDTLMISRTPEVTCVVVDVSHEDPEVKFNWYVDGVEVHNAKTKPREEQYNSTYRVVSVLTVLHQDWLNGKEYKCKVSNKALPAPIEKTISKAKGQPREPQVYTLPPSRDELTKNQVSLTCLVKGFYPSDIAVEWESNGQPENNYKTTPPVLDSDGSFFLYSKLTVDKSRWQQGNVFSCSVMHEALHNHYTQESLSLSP
light: B1 light
notes: as for B1
B25: GpH7-B3 variant L235_15Y/GpL16-k0 (antibody, human IgG1, kappa)
heavy: not shown
light: B1 light
notes: as for B1
B26: GpH7-A5/GpH7-B3 variant P331_09D/GpL16-k0 (antibody, human IgG1, kappa)
heavy 1: not shown
heavy 2: not shown
light: B1 light
notes: He Ab: alteration in the GpH7-B3 H chain only; also called He Ab
B27: GpH7-A5/GpH7-B3 variant P331_13S/GpL16-k0 (antibody, human IgG1, kappa)
heavy 1: not shown
heavy 2: not shown
light: B1 light
notes: as for B26
B28: GpH7-A5/GpH7-B3 variant P331_14T/GpL16-k0 (antibody, human IgG1, kappa)
heavy 1: not shown
heavy 2: not shown
light: B1 light
notes: as for B26
B29: GpH7-A5/GpH7-B3 variant P331_18N/GpL16-k0 (antibody, human IgG1, kappa)
heavy 1: not shown
heavy 2: not shown
light: B1 light
notes: as for B26
B30: GpH7-A5/GpH7-B3 variant Q295_06M/GpL16-k0 (antibody, human IgG1, kappa)
heavy 1: not shown
heavy 2: not shown
light: B1 light
notes: as for B26
B31: GpH7-A5/GpH7-B3 variant Q295_10E/GpL16-k0 (antibody, human IgG1, kappa)
heavy 1: not shown
heavy 2: not shown
light: B1 light
notes: as for B26
B32: GpH7-A5/GpH7-B3 variant S239_14T/GpL16-k0 (antibody, human IgG1, kappa)
heavy 1: not shown
heavy 2: not shown
light: B1 light
notes: as for B26
B33: GpH7-A5/GpH7-B3 variant S324_04F/GpL16-k0 (antibody, human IgG1, kappa)
heavy 1: not shown
heavy 2: not shown
light: B1 light
notes: as for B26
B34: GpH7-A5/GpH7-B3 variant Y296_04F/GpL16-k0 (antibody, human IgG1, kappa)
heavy 1: not shown
heavy 2: not shown
light: B1 light
notes: as for B26
B35: GpH7-A5/GpH7-B3 variant Y296_06M/GpL16-k0 (antibody, human IgG1, kappa)
heavy 1: not shown
heavy 2: not shown
light: B1 light
notes: as for B26
B36: GpH7-A5/GpH7-B3 variant Y296_07I/GpL16-k0 (antibody, human IgG1, kappa)
heavy 1: not shown
heavy 2: not shown
light: B1 light
notes: as for B26
B37: GpH7-A5/GpH7-B3 variant Y296_09D/GpL16-k0 (antibody, human IgG1, kappa)
heavy 1: not shown
heavy 2: not shown
light: B1 light
notes: as for B26
B38: GpH7-A5/GpH7-B3 variant Y296_10E/GpL16-k0 (antibody, human IgG1, kappa)
heavy 1: not shown
heavy 2: not shown
light: B1 light
notes: as for B26
B39: GpH7-A5/GpH7-B3 variant Y296_13S/GpL16-k0 (antibody, human IgG1, kappa)
heavy 1: not shown
heavy 2: not shown
light: B1 light
notes: as for B26
B40: GpH7-A5/GpH7-B3 variant Y296_14T/GpL16-k0 (antibody, human IgG1, kappa)
heavy 1: not shown
heavy 2: not shown
light: B1 light
notes: as for B26
B41: GpH7-A5/GpH7-B3 variant Y296_16H/GpL16-k0 (antibody, human IgG1, kappa)
heavy 1: not shown
heavy 2: not shown
light: B1 light
notes: as for B26
B42: GpH7-A5/GpH7-B3 variant Y296_18N/GpL16-k0 (antibody, human IgG1, kappa)
heavy 1: not shown
heavy 2: not shown
light: B1 light
notes: as for B26
B43: GpH7-A5/GpH7-B3 variant Y296_19Q/GpL16-k0 (antibody, human IgG1, kappa)
heavy 1: not shown
heavy 2: not shown
light: B1 light
notes: as for B26
B44: GpH7-A5/GpH7-B3 variant Y300_04F/GpL16-k0 (antibody, human IgG1, kappa)
heavy 1: not shown
heavy 2: not shown
light: B1 light
notes: as for B26
B45: GpH7-A5/GpH7-B3 variant Y300_18N/GpL16-k0 (antibody, human IgG1, kappa)
heavy 1: not shown
heavy 2: not shown
light: B1 light
notes: as for B26

Target: FcγRIIa H (human FcγRIIa, allotype with His at position 131), extracellular domain with C-terminal His tag (human, UniProt P12318 34-217)
Assay: SPR (Biacore), antibody captured on antigen peptide chip, FcγR as analyte; relative to HoCon Ab GpH7-B3/GpL16-k0 = 100

Binder | Ho/Con_2aH
B1 | 93.1 control = 100
B2 | 96.6 control = 100
B3 | 98 control = 100
B4 | 98.7 control = 100
B5 | 91.5 control = 100
B6 | 95 control = 100
B7 | 99.9 control = 100
B8 | 85.7 control = 100
B9 | 101 control = 100
B10 | 103 control = 100
B11 | 111 control = 100
B12 | 101 control = 100
B13 | 111 control = 100
B14 | 110 control = 100
B15 | 102 control = 100
B16 | 100 control = 100
B17 | 101 control = 100
B18 | 101 control = 100
B19 | 101 control = 100
B20 | 100 control = 100
B21 | 103 control = 100
B22 | 103 control = 100
B23 | 101 control = 100
B24 | 101 control = 100
B25 | 107 control = 100

Target: T1, FcγRIIa R (FcγRIIa, allotype R: Arg at …)
Assay: SPR Biacore, antibody captured, FcgR analyte; vs HeCon Ab GpH7-A5/GpH7-B3/GpL16-k0 = 100
Procedure: (§1) The heterodimerized antibodies He Abs in which one of the H chains was introduced with an alteration were assayed for their binding activities to each activating FcγR and inhibitory FcγR according to the method described in Example 4. […] The activating FcγRs in FIGS. 26, 27, 28, and 29 are FcγRIa, FcγRIIa (R), FcγRIIa (H), and FcγRIIIa, respectively.
(§2) Analysis of interaction between objective antibody and the FcγR was carried out using Biacore T100 (GE Healthcare). HBS-EP+ (GE Healthcare) was used as the running buffer, and the measurement temperature was set to 25° C. Chips produced by immobilizing the antigen peptide by the amine coupling method to a Series S Sencor Chip CM5 (GE Healthcare), or alternatively, chips produced by allowing preliminarily biotinylated antigen peptides to interact with and immobilize onto a Series S Sensor Chip SA (certified) (GE Healthcare) were used. Antibodies of interest were captured onto an antigen peptide-immobilized chip, and allowed to interact to each FcγR diluted with running buffer. To regenerate and repeatedly use the chip, the antibodies captured on the chip were washed off by reacting 10 mM glycine-HCl, pH 1.5.

Binder | He/Con_2aR
B26 | 102 control = 100
B27 | 105 control = 100
B28 | 104 control = 100
B29 | 105 control = 100
B30 | 102 control = 100
B31 | 102 control = 100
B32 | 103 control = 100
B33 | 104 control = 100
B34 | 109 control = 100
B35 | 101 control = 100
B36 | 101 control = 100
B37 | 106 control = 100
B38 | 103 control = 100
B39 | 102 control = 100
B40 | 103 control = 100
B41 | 105 control = 100
B42 | 104 control = 100
B43 | 102 control = 100
B44 | 108 control = 100
B45 | 100 control = 100

Target: T2, FcγRIIb extracellular domain with …
Assay: as above
Procedure: as §1, §2

Binder | He/Con_2b
B26 | 94.3 control = 100
B27 | 96.8 control = 100
B28 | 99.8 control = 100
B29 | 99.2 control = 100
B30 | 90.4 control = 100
B31 | 94.8 control = 100
B32 | 97.3 control = 100
B33 | 89.1 control = 100
B34 | 99.2 control = 100
B35 | 87.8 control = 100
B36 | 84.3 control = 100
B37 | 98.9 control = 100
B38 | 98 control = 100
B39 | 86.3 control = 100
B40 | 88.2 control = 100
B41 | 92.2 control = 100
B42 | 91.5 control = 100
B43 | 89.3 control = 100
B44 | 94.8 control = 100
B45 | 82.7 control = 100
